Source: the supplement of paper PMC9170038

System: MS2 coat protein
Experiment: apparent KD of MS2 coat protein; designed switch direction (-1 OFF switch, 1 ON switch): 1; higher = weaker reporter binding
Summary of the method: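 For each design, the apparent KD is the median over clusters of curves fitted to normalised cluster fluorescence. Clusters held RNA switches with common flanks, transcribed on Illumina chips by stalled E. coli RNA polymerase. These were titrated with SNAP-549-labelled MS2 coat protein, doubling from 0.7 or 1.5 nM to 3 µM, without input, with 200 uM small-molecule ligand, or with an oligonucleotide input.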

[1] = input ligand: microRNA oligo, concentration not stated

| Sequence | apparent KD of MS2 coat protein (input ligand: FMN 200 uM) [nM] | apparent KD of MS2 coat protein [1] [nM] | apparent KD of MS2 coat protein (input ligand: none) [nM] | apparent KD of MS2 coat protein (Eterna round: R95, input ligand: FMN 200 uM) [nM] | apparent KD of MS2 coat protein (Eterna round: R95, input ligand: microRNA oligo, concentration not stated) [nM] | apparent KD of MS2 coat protein (Eterna round: R95, input ligand: none) [nM] |
| --- | --- | --- | --- | --- | --- | --- |
| GUAGCAUACCGAGGAUAUUCAUAAACAUGAGGAUCACCCAUGUAGGCCAGCAUUAGCUGGCCUUGGGAGAAGGCGGAAUGCUAC [Xeonanis - 20 Mod51] (Eterna round: R96, puzzle: Same State NG 2) | 17.4 | 53.9 | 77.4 |  |  |  |
| UGGAUCUAGGCUUGCCUGGGUCCAUGCUGACAUGAGGAUCACCCAUGUGCAUUCUAUAAGCUUUUUGCUUGUCAGCU (puzzle: Sensor for hsa-mir-208a) |  |  |  | 373 | 91 | 441 |
| GGCUAGGAUAUCUGCAGGAUCACCGCGGAGAAGGAGCUAAGCUAGGAUAUCCGCAGGAUCACCGCGGAGAAGGAGCAUAAUAUA [pwkr ssNG3 DX 2xF5 +2xFMN.15] (Eterna round: R96, puzzle: Same State NG 3) | 81.5 | 20.3 | 18.1 |  |  |  |
| UGAAUAGUUACAGGAUAUCAUGCGAAAAUUGCGUGAGAAGGGUGGGUGUUGUGCGCUAAGUGCCACAUGAGGAUCACCCAUGUU [SameState NG1 #38] (Eterna round: R96, puzzle: Same State NG 1) | 44.5 | 7.1 | 25.6 |  |  |  |
| UUCUCAUUUACAUGAGGAUCACCCAUGUUUUUUUGUCAGAGAUAGGAUAUAGUUCUCUCGUUUUUCUAGAAGGAUCUUUUUAUU [JR_SSNG3_Sub087] (Eterna round: R96, puzzle: Same State NG 3) | 79.7 | 53.2 | 71.7 |  |  |  |
| CUUUUUAAUGCAGGAUAUGAUCAACAUGAGGAUCACCCAUGUGGCGUUGUGAGUAAGGAGAGUGAUCAGAAGGGCAUCUCCUCA [SS-NG2-LRO07] (Eterna round: R96, puzzle: Same State NG 2) | 57.5 | 54.5 | 45.8 |  |  |  |
| CCGUAAUAUGGAGGAUAUGGAGCCUUAUUGGCUCCAGAAGGUCAAAACACAUGAGGAUCACCCAUGUCGGCGGUCAAUAGACCG [Eli NG1ss - 75] (Eterna round: R96, puzzle: Same State NG 1) | 31.4 | 42.9 | 45.3 |  |  |  |
| ACUUACAUGGUAGGAUAUGUCCGUCUAGCUGACACAGAAGGGCCAAGCUCUACGACAUGAGGAUCACCCAUGUGAAGGAGAGGC [Eternabot solution 49] (Eterna round: R96, puzzle: Same State NG 1) | 15.1 | 13.6 | 18.3 |  |  |  |
| AUAAAACAUGAGGAUCACCCAUGUCAACAAAGUCGAGGAUAUGGGCAAAUAAAAUAAGAACCAGAAGGCGAAUAUU [salish99_ss1_r3_037] (Eterna round: R96, puzzle: Same State 1) | 43.8 | 262 | 261 |  |  |  |
| GCUAGGAAUAAAGCCAACAUGAGGAUCACCCAUGUAUGUUGGUAGGAUAUCGUUUGCUUUGCAAACGAGAAGGGCUAACCUAGC [JL SSNG3 1.24] (Eterna round: R96, puzzle: Same State NG 3) | 74.6 | 64.5 | 67.5 |  |  |  |
| GAGCUCGUGUGAGGAUAUGCCGCCGUUUCGGCUGCAGAAGGUGCUACGUUACAUGAGGAUCACCCAUGUCUCUGUUGUUUCGUU [salish99_SSNG1_r04_959] (Eterna round: R96, puzzle: Same State NG 1) | 18.5 | 17 | 24.9 |  |  |  |
| GGCAAUAUCACAGGAUAUUGGAAAGGAAGUGUACAAGAAGGGUGAUAGUGCCUCAGCAACAUGAGGAUCACCCAUGUACUGAGC [PowerStrip SSNG 1.29] (Eterna round: R96, puzzle: Same State NG 1) | 121 | 43.6 | 113 |  |  |  |
